How the values were obtained:
[1] = target: MgF-actin (rabbit skeletal muscle actin, filament) (rabbit) (UniProt P68135)
[2] = target: MgF-actin (rabbit skeletal muscle actin, filament) (rabbit) (UniProt P68135); remark: listed apart in the source
[3] = target: MgF-actin (rabbit skeletal muscle actin, filament) (rabbit) (UniProt P68135); remark: listed apart in the source

Histatin-3 (peptide), sequence (P15516 20-51): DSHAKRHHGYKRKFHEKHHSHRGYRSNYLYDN

- bundling of 8 μM F-actin (low speed centrifugation): histatin concentration for 50% bundling [1]: 5 µM
- NaCl concentration (0-200 mM) at which bundles of 4 μM F-actin induced by 16 μM histatin are largely dissociated (low speed centrifugation) [2]: 100 mM
- decrease of the fluorescence emission at 581 nm of 5 μM TRC-F-actin (TRC on Gln41) by 8 μM histatin-3 [3]: 22.3%
Substance: Histatin-3 (peptide)
